For assay [1], the target named is T1, mouse NSP4 (mNSP4), form not stated in Example 6 (mouse, UniProt Q14B24 40-284, limits assumed).
T1 construct: also called recombinant mouse NSP4; purified mouse NSP4
T1 sequence (looked up): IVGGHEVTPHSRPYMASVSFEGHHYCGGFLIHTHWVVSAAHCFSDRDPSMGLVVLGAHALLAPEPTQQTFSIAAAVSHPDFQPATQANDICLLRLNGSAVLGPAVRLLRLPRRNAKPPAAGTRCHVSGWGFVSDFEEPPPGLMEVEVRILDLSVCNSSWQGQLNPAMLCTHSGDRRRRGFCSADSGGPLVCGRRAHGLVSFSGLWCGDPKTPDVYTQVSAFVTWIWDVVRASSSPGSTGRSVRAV
Put plainly: ratio of phage IC50 against the parental clone 51.WT.

In assay [2] the target is T1, mouse NSP4 (mNSP4), form not stated in …. Put plainly: phage competition binding assay (phage IC50), soluble mNSP4 competitor.
Assay [3] deals with T2, human active NSP4 (hA-NSP4) (human, UniProt Q6UWY2 34-283).
T2 construct: range 34-283; Insect-cell material of the same construct was used for the crystal structures; also called mature form of human NSP4
T2 sequence (looked up): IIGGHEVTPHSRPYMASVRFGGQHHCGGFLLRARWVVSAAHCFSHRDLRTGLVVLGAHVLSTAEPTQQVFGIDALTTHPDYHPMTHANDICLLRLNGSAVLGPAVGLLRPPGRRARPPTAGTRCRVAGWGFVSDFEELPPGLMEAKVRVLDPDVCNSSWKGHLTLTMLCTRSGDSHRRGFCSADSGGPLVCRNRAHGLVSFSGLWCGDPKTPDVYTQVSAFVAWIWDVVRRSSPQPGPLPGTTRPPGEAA
Put plainly: competition phage ELISA (phage IC50): phage clone preincubated with soluble hA-NSP4, then on NSP4-coated wells. A general note: In an ELISA, binding on a coated surface is turned into a signal by an enzyme label.

Assay [4] has as its target T3, mouse active NSP4 (mA-NSP4) (mouse, UniProt Q14B24 40-284).
T3 chain: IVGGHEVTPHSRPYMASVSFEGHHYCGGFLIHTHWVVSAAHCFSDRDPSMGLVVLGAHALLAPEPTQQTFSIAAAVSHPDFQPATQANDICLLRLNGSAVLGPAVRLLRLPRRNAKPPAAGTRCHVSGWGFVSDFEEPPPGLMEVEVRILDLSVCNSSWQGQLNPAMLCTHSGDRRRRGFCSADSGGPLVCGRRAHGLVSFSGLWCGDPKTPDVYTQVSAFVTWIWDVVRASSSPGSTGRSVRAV
As to the kind of experiment: BLI; no affinity. A general note: In BLI a coated tip is dipped into the sample, and binding shifts an interference pattern.

Assay [5] has as its target T4, mouse zymogen NSP4 (mZ-NSP4) (mouse, UniProt Q14B24 36-284).
T4 chain: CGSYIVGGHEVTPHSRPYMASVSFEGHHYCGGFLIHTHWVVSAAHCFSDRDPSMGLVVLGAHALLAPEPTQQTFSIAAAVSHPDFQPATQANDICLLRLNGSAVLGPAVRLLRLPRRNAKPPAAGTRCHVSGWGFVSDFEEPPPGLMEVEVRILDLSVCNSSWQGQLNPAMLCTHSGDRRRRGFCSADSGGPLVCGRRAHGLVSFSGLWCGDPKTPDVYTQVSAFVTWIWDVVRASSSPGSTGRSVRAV
Put plainly: BLI; no affinity.

B1: affinity matured anti-NSP4 antibody clone 51.72 (Fab, V domains shown)
VH: EVQLVESGGGLVQPGGSLRLSCAASGFTFSGSGIHWVRQAPGKGLEWVAWISPTGGNTYYADSVKGRFTISADTSKNTAYLQMNSLRAEDTAVYYCAKSLFHNVAFDYWGQGTLVTVSS
VL: DIQMTQSPSSLSASVGDRVTITCRASQDVSTAVAWYQQKPGKAPKLLIYSASFLYSGVPSRFSGSGSGTDFTLTISSLQPEDFATYYCQQSYTAPPTFGQGTKVEIKR
In general, IC50 refers to the concentration at which inhibition is half-maximal. Low values mean higher potency, high ones lower potency. Regarding B1, the “Affinity improvement to mNSP4” value in assay [1] came out at 49.8 fold. In addition, the IC50 in assay [2] amounted to 0.375 nM.

B2: anti-NSP4 antibody 2-4 (antibody, V domains shown)
VH: EVQLVESGGGLVQPGGSLRLSCAASGFTFSDYWISWVRQAPGKGLEWVAGISPNNGDTYYADSVKGRFTISADTSKNTAYLQMNSLRAEDTAVYYCAREDDDERDYAMDYWGQGTLVTVSS
VL: DIQMTQSPSSLSASVGDRVTITCRASQDVSTAVAWYQQKPGKAPKLLIYSASFLYSGVPSRFSGSGSGTDFTLTISSLQPEDFATYYCQQSYTTPPTFGQGTKVEIKR
B2: the IC50 in assay [3] is 1.63 nM.

B3: anti-NSP4 antibody 1-2 (antibody, V domains shown)
VH: EVQLVESGGGLVQPGGSLRLSCAASGFTFSGYSIHWVRQAPGKGLEWVAGISPTNGYTDYADSVKGRFTISADTSKNTAYLQMNSLRAEDTAVYYCARLVFYRGVMDYWGQGTLVTVSS
VL: DIQMTQSPSSLSASVGDRVTITCRASQDVSTAVAWYQQKPGKAPKLLIYSASFLYSGVPSRFSGSGSGTDFTLTISSLQPEDFATYYCQQSYTTPPTFGQGTKVEIKR
The Kd is the equilibrium constant for the complex coming apart. Lower therefore signals higher affinity. With B3, the Kd in assay [4] and in assay [5] was above 1000 nM each time.

B4: anti-NSP4 antibody 2-5 (antibody, V domains shown)
VH: EVQLVESGGGLVQPGGSLRLSCAASGFTFTGYGISWVRQAPGKGLEWVGWIYPASGATYYADSVKGRFTISADTSKNTAYLQMNSLRAEDTAVYYCARHRAFDWYPYYIGSSVMDYWGQGTLVTVSS
VL: DIQMTQSPSSLSASVGDRVTITCRASQDVSTAVAWYQQKPGKAPKLLIYSASFLYSGVPSRFSGSGSGTDFTLTISSLQPEDFATYYCQQSYTTPPTFGQGTKVEIKR
For B4, in assay [4], the Kd is above 1000 nM. The IC50 in assay [3] was found to be 5130 nM.

B5: anti-NSP4 antibody 4-2 (antibody, V domains shown)
VH: EVQLVESGGGLVQPGGSLRLSCAASGFTFSGSDISWVRQAPGKGLEWVGEIYPSNGDTYYADSVKGRFTISADTSKNTAYLQMNSLRAEDTAVYYCARSVRPSWWAMDYWGQGTLVTVSS
VL: DIQMTQSPSSLSASVGDRVTITCRASQDVSTAVAWYQQKPGKAPKLLIYSASFLYSGVPSRFSGSGSGTDFTLTISSLQPEDFATYYCQQSYTTPPTFGQGTKVEIKR
As for B5, the Kd in assay [4] and in assay [5] was above 1000 nM each time. Also, the IC50 in assay [3] amounted to 84.8 nM.

B6: anti-NSP4 antibody 2-1 (antibody, V domains shown)
VH: EVQLVESGGGLVQPGGSLRLSCAASGFTFTDYSIHWVRQAPGKGLEWVAEIYPYSGDTYYADSVKGRFTISADTSKNTAYLQMNSLRAEDTAVYYCARDGDGWFDWAMDYWGQGTLVTVSS
VL: DIQMTQSPSSLSASVGDRVTITCRASQDVSTAVAWYQQKPGKAPKLLIYSASFLYSGVPSRFSGSGSGTDFTLTISSLQPEDFATYYCQQSYTTPPTFGQGTKVEIKR
On to B6, for which the IC50 in assay [3] was 3.81 nM.

B7: anti-NSP4 antibody 4-4 (antibody, V domains shown)
VH: EVQLVESGGGLVQPGGSLRLSCAASGFTFTSTSIHWVRQAPGKGLEWVAEITPHGGYTNYADSVKGRFTISADTSKNTAYLQMNSLRAEDTAVYYCARGRTKWGWLYGMDYWGQGTLVTVSS
VL: DIQMTQSPSSLSASVGDRVTITCRASQDVSTAVAWYQQKPGKAPKLLIYSASFLYSGVPSRFSGSGSGTDFTLTISSLQPEDFATYYCQQSYTTPPTFGQGTKVEIKR
For the molecule B7, the Kd in assay [4] and in assay [5] was above 1000 nM in each case. The IC50 in assay [3] was 1.48 nM.

B8: anti-NSP4 antibody 1-1 (antibody, V domains shown)
VH: EVQLVESGGGLVQPGGSLRLSCAASGFTFSGSWISWVRQAPGKGLEWVGTISPYNGSTYYADSVKGRFTISADTSKNTAYLQMNSLRAEDTAVYYCARVLRPKVYASVMDYWGQGTLVTVSS
VL: DIQMTQSPSSLSASVGDRVTITCRASQDVSTAVAWYQQKPGKAPKLLIYSASFLYSGVPSRFSGSGSGTDFTLTISSLQPEDFATYYCQQSYTTPPTFGQGTKVEIKR
Consider B8, for which the Kd in assay [4] and in assay [5] was above 1000 nM in each case.

B9: anti-NSP4 antibody 2-2 (antibody, V domains shown)
VH: EVQLVESGGGLVQPGGSLRLSCAASGFTFSSTAISWVRQAPGKGLEWVGEIYPSDGYTDYADSVKGRFTISADTSKNTAYLQMNSLRAEDTAVYYCARVKWAVSSLGVMDYWGQGTLVTVSS
VL: DIQMTQSPSSLSASVGDRVTITCRASQDVSTAVAWYQQKPGKAPKLLIYSASFLYSGVPSRFSGSGSGTDFTLTISSLQPEDFATYYCQQSYTTPPTFGQGTKVEIKR
The molecule B9 registered a Kd in assay [4] above 1000 nM. Moreover, the IC50 in assay [3] is 10.1 nM.

B10: anti-NSP4 antibody 4-3 (antibody, V domains shown)
VH: EVQLVESGGGLVQPGGSLRLSCAASGFTFSSYDISWVRQAPGKGLEWVGTISPYDGYTDYADSVKGRFTISADTSKNTAYLQMNSLRAEDTAVYYCARYIRRYSVHYGMDYWGQGTLVTVSS
VL: DIQMTQSPSSLSASVGDRVTITCRASQDVSTAVAWYQQKPGKAPKLLIYSASFLYSGVPSRFSGSGSGTDFTLTISSLQPEDFATYYCQQSYTTPPTFGQGTKVEIKR
For the molecule B10, the Kd in assay [4] and in assay [5] was above 1000 nM throughout.

B11: anti-NSP4 antibody 1-5 (antibody, V domains shown)
VH: EVQLVESGGGLVQPGGSLRLSCAASGFTFTNNSISWVRQAPGKGLEWVGAISPNNGSTYYADSVKGRFTISADTSKNTAYLQMNSLRAEDTAVYYCARNAWHYSWVGVMDYWGQGTLVTVSS
VL: DIQMTQSPSSLSASVGDRVTITCRASQDVSTAVAWYQQKPGKAPKLLIYSASFLYSGVPSRFSGSGSGTDFTLTISSLQPEDFATYYCQQSYTTPPTFGQGTKVEIKR
For B11, the Kd in assay [4] and in assay [5] was above 1000 nM each time.

B12: anti-NSP4 antibody 2-3 (antibody, V domains shown)
VH: EVQLVESGGGLVQPGGSLRLSCAASGFTFTDSDISWVRQAPGKGLEWVAWISPSDGATDYADSVKGRFTISADTSKNTAYLQMNSLRAEDTAVYYCAHEASDDDYAIDYWGQGTLVTVSS
VL: DIQMTQSPSSLSASVGDRVTITCRASQDVSTAVAWYQQKPGKAPKLLIYSASFLYSGVPSRFSGSGSGTDFTLTISSLQPEDFATYYCQQSYTTPPTFGQGTKVEIKR
Consider B12, for which the IC50 in assay [3] came to 4.96 nM. This lies in the single-digit nanomolar range.

B13: anti-NSP4 antibody 1-3 (antibody, V domains shown)
VH: EVQLVESGGGLVQPGGSLRLSCAASGFTFSDNWISWVRQAPGKGLEWVGYIYPASGYTDYADSVKGRFTISADTSKNTAYLQMNSLRAEDTAVYYCASDSPHAYWYAMDYWGQGTLVTVSS
VL: DIQMTQSPSSLSASVGDRVTITCRASQDVSTAVAWYQQKPGKAPKLLIYSASFLYSGVPSRFSGSGSGTDFTLTISSLQPEDFATYYCQQSYTTPPTFGQGTKVEIKR
Turning to B13, the Kd in assay [4] and in assay [5] was above 1000 nM in each case.

B14: affinity matured anti-NSP4 antibody clone 51.50 (Fab, V domains shown)
VH: EVQLVESGGGLVQPGGSLRLSCAASGFTFSGSGIHWVRQAPGKGLEWVAWISPTGGNTYYADSVKGRFTISADTSKNTAYLQMNSLRAEDTAVYYCAKSLFHNVAFDYWGQGTLVTVSS
VL: DIQMTQSPSSLSASVGDRVTITCRASQDVSTAVAWYQQKPGKAPKLLIYSASFLYSGVPSRFSGSGSGTDFTLTISSLQPEDFATYYCQQANSTPPTFGQGTKVEIKR
Take B14: the “Affinity improvement to mNSP4” value in assay [1] amounted to 178 fold. In assay [2], this molecule registered an IC50 of 0.105 nM.

B15: affinity matured anti-NSP4 antibody clone 51.51 (Fab, V domains shown)
VH: EVQLVESGGGLVQPGGSLRLSCAASGFTFSGSGIHWVRQAPGKGLEWVAWISPTGGNTYYADSVKGRFTISADTSKNTAYLQMNSLRAEDTAVYYCARGLFHNVAFDYWGQGTLVTVSS
VL: DIQMTQSPSSLSASVGDRVTITCRASQDVSTAVAWYQQKPGKAPKLLIYSASFLYSGVPSRFSGSGSGTDFTLTISSLQPEDFATYYCQQSYTAPPTFGQGTKVEIKR
In the case of B15, the “Affinity improvement to mNSP4” value in assay [1] was 63 fold. The 50% inhibitory concentration (IC50) in assay [2] turned out to be 0.296 nM.

B16: affinity matured anti-NSP4 antibody clone 51.30 (Fab, V domains shown)
VH: EVQLVESGGGLVQPGGSLRLSCAASGFTFSGSGIHWVRQAPGKGLEWVAWIPTAGGNTYYADSVKGRFTISADTSKNTAYLQMNSLRAEDTAVYYCAKSLFHNVAFDYWGQGTLVTVSS
VL: DIQMTQSPSSLSASVGDRVTITCRASQDVSTAVAWYQQKPGKAPKLLIYSASFLYSGVPSRFSGSGSGTDFTLTISSLQPEDFATYYCQQSYTAPPTFGQGTKVEIKR
In the case of B16, in assay [1], the “Affinity improvement to mNSP4” value stood at 161 fold. In addition, the IC50 in assay [2] was 0.116 nM.
